Assay results taken from patent US20260108496A1, “METHODS FOR REPROGRAMING EXHAUSTED T CELLS AND BOOSTING IMMUNE CHECKPOINT BLOCKADE THERAPY FOR CANCER” (Ohio State Innovation Foundation, priority 2022, published 2026).

B1: BMP14: BMP ligand (protein, UniProt P43026 382-501, looked up)
Growth/differentiation factor …: APLATRQGKRPSKNLKARCSRKALHVNFKDMGWDDWIIAPLEYEAFHCEGLCEFPLRSHLEPTNHAVIQTLMNSMDPESTPPTCCVPTRLSPISILFIDSANNVVYKQYEDMVVESCGCR
modifications: Growth/differentiation factor 5
notes: BMP ligand
B2: BMP6: natural BMP ligand (protein, UniProt P22004 375-513, looked up)
Bone morphogenetic protein 6: SASSRRRQQSRNRSTQSQDVARVSSASDYNSSELKTACRKHELYVSFQDLGWQDWIIAPKGYAANYCDGECSFPLNAHMNATNHAIVQTLVHLMNPEYVPKPCCAPTKLNAISVLYFDDNSNVILKKYRNMVVRACGCH
modifications: Bone morphogenetic protein 6
notes: natural BMP ligand
B3: BMP10: natural BMP ligand (protein, UniProt O95393 317-424, looked up)
Bone morphogenetic protein 10: NAKGNYCKRTPLYIDFKEIGWDSWIIAPPGYEAYECRGVCNYPLAEHLTPTKHAIIQALVHLKNSQKASKACCVPTKLEPISILYLDKGVVTYKFKYEGMAVSECGCR
B4: BMP4: natural BMP ligand, bone morphogenic protein 4 (protein, UniProt P12644 293-408, looked up)
Bone morphogenetic protein 4: SPKHHSQRARKKNKNCRRHSLYVDFSDVGWNDWIVAPPGYQAFYCHGDCPFPLADHLNSTNHAIVQTLVNSVNSSIPKACCVPTELSAISMLYLDEYDKVVLKNYQEMVVEGCGCR
modifications: Bone morphogenetic protein 4
B5: BMP12: BMP ligand (protein, UniProt Q7Z4P5 322-450, looked up)
Growth/differentiation factor …: TALAGTRTAQGSGGGAGRGHGRRGRSRCSRKPLHVDFKELGWDDWIIAPLDYEAYHCEGLCDFPLRSHLEPTNHAIIQTLLNSMAPDAAPASCCVPARLSPISILYIDAANNVVYKQYEDMVVEACGCR

Key:
[1] = tested on: SMAD1/5/8 phosphorylation; conditions: cited from earlier work
human CD8 T cells = test: treatment of human CD8 T cells with BMP ligands under chronic strong TCR stimulation; assay type: cell-based; conditions: for expression levels of terminal exhaustion-associated molecules (CD39, CD101, CD103): day 21; for frequencies of IFNγ-producing CD8 T cells: days 14 and 21
Text: BMP ligands can signal through type 1 (BMPR1, ACVR1) or type 2 receptors (BMPR2, ACVR2), which typically form heterotetramers upon ligand binding. Once heterotetramers are activated by ligands, they phosphorylate SMAD1/5/8 that binds to SMAD4 and translocates to nucleus and bind to target genes.

Molecule | activation of SMAD1/5/8 phosphorylation [1] | expression levels of terminal exhaustion-associated molecules (CD39, CD101, CD103) (human CD8 T cells) | frequencies of IFNγ-producing CD8 T cells (human CD8 T cells) | numbers of chronically stimulated human CD8 T cells (human CD8 T cells; chronic strong TCR stimulation)
B1 | medium or weak | – | – | –
B2 | strong | downregulated | – | –
B3 | medium or weak | downregulated | significantly higher frequencies | –
B4 | strong | downregulated | significantly higher frequencies | preserved significantly higher numbers
B5 | medium or weak | – | – | –
